How the values were obtained:
A. fumigatus = assay: Inflammatory response in BALFs after i.t. injection of Sap-opsonised conidia; type: in vivo; conditions: Apcs−/− mice, 16 h
Experimental: FIG. 5 depicts the rescue of susceptibility to A. fumigatus in SAP-deficient mice. a) b) c) d) i.t. injection of non-opsonised or Sap-opsonised AF conidia. a) survival of wt and Apcs^−/− mice. Wt, n=10; wt+Sap, n=10; Apcs^−/−, n=14; Apcs^−/−+Sap, n=13.****, P<0.0001, wt vs. Apcs^−/− or Apcs^−/− vs. Apcs^−/−+Sap (Mantel-Cox test). b) and c) levels of TNF-α (b) and MPO (c) in BALFs of mice (16 h). b),****, P<0.0001;**, P<0.01. c),***, P<0.0005. d, FACS analysis of neutrophil recruitment in lung (16 h). Mean±SEM.****, P<0.0001;*, P<0.05. b), c), d), Mean±SEM; Mann-Whitney test.
BALFs collection and analysis. BALFs were performed with 1.5 ml PBS, pH 7.4, containing protease inhibitors (Complete tablets, Roche Diagnostic; PMSF, Sigma-Aldrich) and 10 mM EDTA (Sigma-Aldrich) with a 22-gauge venous catheter. BALFs were centrifuged, and supernatants were collected for quantification of total protein content with Bradford's assay (Bio-RAD) and cytokines as described below. After erythrocyte lysis with ACK solution (pH 7.2; NH4Cl 0.15 M, KHCO3 10 mM, EDTA 0.1 mM), cells were resuspended in PBS, pH 7.4, containing 10 mM EDTA and 1% heat-inactivated fetal bovine serum (FCS; Sigma-Aldrich), stained with live and death dye (ThermoFisher Scientific-Molecular Probes) and analysed by BD FACS Canto™ II Flow Cytometer (BD Biosciences) with the following specific antibodies: peridinin chlorophyll protein complex (PerCP)—or brilliant violet (BV) 650-labelled anti-CD45 (#30-F11, IgG2b; 4 μg/ml); FITC- or phycoerythrin (PE)-CF594-labelled anti-Ly6G (#1A8, IgG2a; 4 μg/ml); allophycocyanin (APC)—or BV421-labelled anti-CD11b (#M 1/70, RUO, IgG2b; 1 μg/ml) (all from BD Biosciences).
Proteins. A recombinant murine SAP from mouse myeloma cell line NSO was used (R&D Systems). Native SAP from human serum was purchased by Merck-Millipore. […] Purity of the recombinant protein was assessed by SDS-PAGE followed by silver staining. […] SAP levels were measured in mouse plasma by ELISA (DuoSet ELISA; R&D Systems). Murine TNF-α, CCL2, MPO were measured by ELISA (DuoSet ELISA; R&D Systems). […]

[1] = tested on: complement activation on A. fumigatus conidia; assay: Complement C3 deposition on A. fumigatus conidia and C5a formation in mouse plasma; type: biochemical; conditions: Sap-opsonised conidia
Experimental: FIG. 6 depicts the effect of SAP on complement activation on A. fumigatus. a) FACS analysis of plasma C3 deposition on AF conidia (1×10^7) opsonized or not with Sap. b) plasma C5a levels after incubation with AF conidia shown in a. a) and b) n=10 mouse plasma/genotype. b) representative experiment out of three performed. a) and b) Mean±SEM.*, P<0.05;**, P<0.01;***, P<0.005;****, P<0.0001 (unpaired t-test).
Complement deposition on Aspergillus fumigatus. A volume of 10 μl PBS, pH 7.4, containing 1×10^7 conidia eventually opsonized with murine SAP (100 μg/ml per 1×10^9 conidia, 1 h at r.t.) was incubated (37° C.) in round bottom wells of Corning® 96-well polypropylene microplates for the indicated time points with 20 μl mouse plasma-heparin or 20 μl human NS and complement depleted sera (diluted in PBS at 10% and 30%). Complement deposition was blocked by addition of EDTA (10 mM final concentration) and by cooling in ice. After centrifugation (2000 rpm, 10 min at 4° C.), when indicated supernatant was collected for C5a measurement by ELISA. […] Conidia were then incubated (1 h, at 4° C.) with Alexa Fluor® 488 and 647-conjugated species-specific cross-adsorbed detection antibodies (2 μg/ml; ThermoFisher Scientific-Molecular Probes) and analysed by BD FACS Canto™ II Flow Cytometer (BD Biosciences) using forward and side scatter parameters to gate on at least 8,000 conidia. […] Results were expressed as frequency of conidia showing fluorescence compared with irrelevant controls and as geometric conidia MFI.
Proteins. […] Purity of the recombinant protein was assessed by SDS-PAGE followed by silver staining. […] SAP levels were measured in mouse plasma by ELISA (DuoSet ELISA; R&D Systems). Murine TNF-α, CCL2, MPO were measured by ELISA (DuoSet ELISA; R&D Systems). Murine C5a was measured either in plasma-heparin or in BALFs previously stored at −80° C. by DuoSet ELISA (R&D Systems) maintaining EDTA (10 mM) throughout the assay in order to stop the activation of the complement cascade.

B1: recombinant murine SAP: recombinant murine SAP from mouse myeloma cell line NSO (R&D Systems) (protein, UniProt P12246 21-224, looked up)
Serum amyloid P-component: QTDLKRKVFVFPRESETDHVKLIPHLEKPLQNFTLCFRTYSDLSRSQSLFSYSVKGRDNELLIYKEKVGEYSLYIGQSKVTVRGMEEYLSPVHLCTTWESSSGIVEFWVNGKPWVKKSLQREYTVKAPPSIVLGQEQDNYGGGFQRSQSFVGEFSDLYMWDYVLTPQDILFVYRDSPVNPNILNWQALNYEINGYVVIRPRVWD
In the case of B1, the “MPO level in BALFs” value (A. fumigatus) is reported as “normalized”, the “TNF-α level in BALFs” value (A. fumigatus) is reported as “normalized” and the “neutrophil number in BALFs” value (A. fumigatus) is reported as “normalized”. The “in vitro C3 deposition on A. fumigatus conidia” value ([1]; Apcs−/− and wt plasma) was “rescued or increased”, the C5a formation ([1]; Apcs−/− plasma, 1, 5, 10, 20 min) was “rescued” and the C5a formation ([1]; wt plasma) was “increased”.

— US20220054588A1, “USE OF SAP FOR THE TREATMENT OF EUROTIOMYCETES FUNGI INFECTIONS” (HUMANITAS MIRASOLE S.P.A., priority 2018, published 2022)
